2 molecules from article PMC12494784 (Nature Communications, 2025) can be followed below.

One data set concerns the target calmodulin (UniProt P0DP23). Put plainly: cryo-EM structure.
The data set “cryo-EM structure” deals with the molecule itself. Put plainly: cryo-EM structure.

B1: truncated Xenopus laevis KCNQ1 (residues 67-610), wild type (domain or fragment)
chain: ATDPPRPTINLDPRVSIYSGRRPLLSRTNIQGRVYNFLERPTGWKCFVYHFTVFLIVLICLIFSVLSTIQQYNNLATETLFWMEIVLVVFFGAEYVVRLWSAGCRSKYVGVWGRLRFARKPISVIDLIVVVASVIVLCVGSNGQVFATSAIRGIRFLQILRMLHVDRQGGTWRLLGSVVFIHRQELITTLYIGFLGLIFSSYFVYLAEKDAIDSSGEYQFGSYADALWWGVVTVTTIGYGDKVPQTWIGKTIASCFSVFAISFFALPAGILGSGFALKVQQKQRQKHFNRQIPAAASLIQTAWRCYAAENPDSATWKIYIRKQSRNHHLMSPSPKPKKSAMVKKKKIRTERDEGSTDKMLNIPHITYDHVADDRKNDGYSVESYENTVRKPFGFLDPSTGPFIRTSSFTDDLDMEGDTLLTPITHISELKEHHRAAIKVIRRMQYFVAKKKFQQARKPYDVRDVIEQYSQGHLNLMVRIKELQRRLDQSLGKPSLFLSVSDKVKDKGINTIGSRLNRVEDKVTQMDHKLNLITDMLHHLLTNQQ
On to B1, for which the binding result with calmodulin is on record as “binds”. In “cryo-EM structure”, the “stoichiometry N” value stood at 4.

B2: Xenopus KCNQ1 E150R/R221E (residues 67-610) (domain or fragment)
chain: ATDPPRPTINLDPRVSIYSGRRPLLSRTNIQGRVYNFLERPTGWKCFVYHFTVFLIVLICLIFSVLSTIQQYNNLATETLFWMRIVLVVFFGAEYVVRLWSAGCRSKYVGVWGRLRFARKPISVIDLIVVVASVIVLCVGSNGQVFATSAIRGIEFLQILRMLHVDRQGGTWRLLGSVVFIHRQELITTLYIGFLGLIFSSYFVYLAEKDAIDSSGEYQFGSYADALWWGVVTVTTIGYGDKVPQTWIGKTIASCFSVFAISFFALPAGILGSGFALKVQQKQRQKHFNRQIPAAASLIQTAWRCYAAENPDSATWKIYIRKQSRNHHLMSPSPKPKKSAMVKKKKIRTERDEGSTDKMLNIPHITYDHVADDRKNDGYSVESYENTVRKPFGFLDPSTGPFIRTSSFTDDLDMEGDTLLTPITHISELKEHHRAAIKVIRRMQYFVAKKKFQQARKPYDVRDVIEQYSQGHLNLMVRIKELQRRLDQSLGKPSLFLSVSDKVKDKGINTIGSRLNRVEDKVTQMDHKLNLITDMLHHLLTNQQ
For the molecule B2, the binding result in the data set with calmodulin is on record as “binds”.

For orientation: stoichiometry N means a count of units in the complex or per binding partner.
